Among the data in paper PMC7311918 are stoichiometry N values, retold here.

The experiment addresses SARS-CoV-2 S 2P trimer (S ectodomain, residues 16-1206) (SARS-CoV-2) (UniProt P0DTC2). As to the kind of experiment: SEC-MALS.

As to “SARS-CoV-2 S 2P trimer (S ectodomain, residues 16-1206) (from UniProt P0DTC2 16-1206) (natural protein)”, the stoichiometry N (in general, a count of units in the complex or per binding partner) was 3.
